Measured values published in publication PMC12212138, “Crystal structure and mutagenesis of a nucleic acid–binding BRCT domain in human PARP4”.

Legend:
PARP4 BRCT WT = target: T1, PARP4 BRCT WT (human, UniProt Q9UKK3 1-100); test: FP; 3 nM probe; FP: 50 mM Tris pH 7.5, 50 mM NaCl, 1 mM MgCl2, 0.05% NP40, 2 mM DTT, 5% glycerol, 25 ug/ml BSA, room temp 30 min; EMSA: 50 mM Tris pH 7.5, 50 mM NaCl, 4% Ficoll PM400, 0.05% NP40, 2 mM DTT, 0-18 uM protein, room temp 30 min, gel at 4 C; conditions: protein: recombinant; tags: N-terminal His-SUMO removed by TEV; label: 5'-6-FAM; predicted intramolecular fold
T1 sequence: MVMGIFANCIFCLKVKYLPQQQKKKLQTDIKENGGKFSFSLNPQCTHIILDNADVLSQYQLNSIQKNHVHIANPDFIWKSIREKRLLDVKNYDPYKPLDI

PARP4 BRCT-WGR-CAT WT [1] = target: T2, PARP4 BRCT-WGR-CAT WT (human, UniProt Q9UKK3 1-573); test: FP; 15 nM probe; FP: 50 mM Tris pH 7.5, 50 mM NaCl, 1 mM MgCl2, 0.05% NP40, 2 mM DTT, 5% glycerol, 25 ug/ml BSA, room temp 30 min; EMSA: 50 mM Tris pH 7.5, 50 mM NaCl, 4% Ficoll PM400, 0.05% NP40, 2 mM DTT, 0-18 uM protein, room temp 30 min, gel at 4 C; conditions: protein: recombinant, tags: N-terminal His-SUMO removed by TEV
T2 sequence: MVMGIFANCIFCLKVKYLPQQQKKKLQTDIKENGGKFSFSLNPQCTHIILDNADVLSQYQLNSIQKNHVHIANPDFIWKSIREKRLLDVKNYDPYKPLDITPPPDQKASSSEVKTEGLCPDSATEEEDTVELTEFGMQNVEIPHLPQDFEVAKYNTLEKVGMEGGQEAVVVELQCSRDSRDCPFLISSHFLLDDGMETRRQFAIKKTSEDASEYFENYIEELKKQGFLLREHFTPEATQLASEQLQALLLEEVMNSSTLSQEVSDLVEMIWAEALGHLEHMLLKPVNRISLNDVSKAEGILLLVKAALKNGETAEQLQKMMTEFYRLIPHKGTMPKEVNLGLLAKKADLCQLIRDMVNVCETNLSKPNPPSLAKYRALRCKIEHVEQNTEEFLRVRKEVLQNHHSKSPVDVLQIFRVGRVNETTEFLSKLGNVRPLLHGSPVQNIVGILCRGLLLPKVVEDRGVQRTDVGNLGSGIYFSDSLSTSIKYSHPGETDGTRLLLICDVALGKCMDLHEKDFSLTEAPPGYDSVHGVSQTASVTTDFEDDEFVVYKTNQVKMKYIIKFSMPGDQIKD

PARP4 BRCT-WGR-CAT WT [2] = target: T2, PARP4 BRCT-WGR-CAT WT; test: EMSA; 20 nM probe; FP: 50 mM Tris pH 7.5, 50 mM NaCl, 1 mM MgCl2, 0.05% NP40, 2 mM DTT, 5% glycerol, 25 ug/ml BSA, room temp 30 min; EMSA: 50 mM Tris pH 7.5, 50 mM NaCl, 4% Ficoll PM400, 0.05% NP40, 2 mM DTT, 0-18 uM protein, room temp 30 min, gel at 4 C; conditions: protein: recombinant; tags: N-terminal His-SUMO removed by TEV; label: 5'-6-FAM; single strand, predicted fold

B1: vtRNA1-1 (structured_RNA)
RNA: GGCUGGCUUUAGCUCAGCGGUUACUUCGACAGUUCUUUAAUUGAAACAAGCAACCUGUCUGGGUUGUUCGAGACCCGCGGGCGCUCUCCAGUCCUUUU
For B1, which Kd (PARP4 BRCT WT) is on record?
The Kd was 13 ± 4 µM.

B2: Probe 2 (structured_RNA)
RNA: GUCAUCAAACCACCUCUCUGGGUUGUUCGAGAC
What does the source list for B2?
Kd (PARP4 BRCT-WGR-CAT WT [1]; label: 5'-6-FAM, single strand, predicted fold): 44 ± 13 µM; Kd (PARP4 BRCT-WGR-CAT WT [2]): 11 ± 3 µM

B3: vtRNA1-2 (structured_RNA)
RNA: GGCUGGCUUUAGCUCAGCGGUUACUUCGAGUACAUUGUAACCACCUCUCUGGGUGGUUCGAGACCCGCGGGUGCUUUCCAGCUCUUUU
How did the Kd (PARP4 BRCT WT) turn out when B3 was run?
The Kd was 20 ± 5 µM.

B4: Probe 1 (dsRNA)
RNA 1: GGCUGGCUUUAGCUCAGCGG
RNA 2: CCGCGGGCGCUCUCCAGCCCUCUU
With B4 as the binder, how does the Kd (PARP4 BRCT-WGR-CAT WT [1]; label: 5'-6-FAM on strand 1, two-strand partial duplex) read?
Its Kd is 25 ± 10 µM.
